According to patent US20230272055A1 (Incyte, published 2023):

molecular target: T1, Recombinant MBP-mutCALR Type 1 fusion protein (human); assay: SPR, IgG captured, 1:1 fit, Exp. 2
T1 construct: custom made at Cepter; also called recombinant mutCALR protein
Method in brief: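 Antibodies captured via amine-coupled anti-human IgG (Fc) on a CM4 chip; recombinant MBP-mutCALR Type 1 fusion protein as analyte. Run at 25 °C in Tris-buffered saline pH 7.2, 0.005% P20, 1 mM CaCl₂. Multiple-cycle kinetics fitted to a 1:1 binding model.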

Row | Binder | Kd | koff | kon
1 | anti-mutCALR antibody clone 69 (antibody, human IgG1, lambda, N297A, V domains shown, human IgG1 N297A variant of clone 6) VH: EVQLVQSGAEVKKPGASVKVSCKVSGYTLTELSMQWVRQAPGKGLEWMGGFDPDDAETMYAEKFQGRLTVTEDTSTDTVYMELRSLTSEDTALYFCATSPGYDFFDYWGQGTLVTVSS VL: SYVLTQPPSVSVAPGKTARITCTGTSSDVGGYNYVSWYQQKPGQAPVLVVYEVSNRPSGIPERFSGSNSGNTATLTISRVEAGDEADYYCQVWDSSNDLLIFGGGTKLTVLG | 0.53 nM | 0.00527 s⁻¹ | 9.94e+06 M⁻¹ s⁻¹
2 | anti-mutCALR antibody clone 71 (antibody, human IgG1, lambda, N297A, V domains shown, human IgG1 N297A variant of clone 6) VH: EVQLVQSGAEVKKPGASVKVSCKVSGYTLTELSMQWVRQAPGKGLEWMGGFDPDAGETMYAEKFQGRLTVTEDTSTDTVYMELSSLRSEDTAVYFCATSPGYDFFDYWGQGTLVTVSS VL: SYVLTQPPSVSVAPGKTARITCTGTSSDVGGYNYVSWYQQKPGQAPVLVVYEVSNRPSGIPERFSGSNSGNTATLTISRVEAGDEADYYCQVWDSSNDLLIFGGGTKLTVLG | 2.31 nM | 0.0107 s⁻¹ | 4.63e+06 M⁻¹ s⁻¹
3 | anti-mutCALR antibody clone 72 (antibody, human IgG1, lambda, N297A, V domains shown, human IgG1 N297A variant of clone 6) VH: EVQLVQSGAEVKKPGASVKVSCKVSGYTLTELSMQWVRQAPGKGLEWMGGFDPDSGETMYAEKFQGRLTVTEDTSTDTVYMELSSLRSEDTAVYFCATSPGYDFFDYWGQGTLVTVSS VL: SYVLTQPPSVSVAPGKTARITCTGTSSDVGGYNYVSWYQQKPGQAPVLVVYEVSNRPSGIPERFSGSNSGNTATLTISRVEAGDEADYYCQVWDSSNDLLIFGGGTKLTVLG | 3.74 nM | 0.00382 s⁻¹ | 1.02e+06 M⁻¹ s⁻¹
4 | anti-mutCALR antibody clone 73 (antibody, human IgG1, lambda, N297A, V domains shown, human IgG1 N297A variant of clone 6) VH: EVQLVQSGAEVKKPGASVKVSCKVSGYTLTELSMQWVRQAPGKGLEWMGGFDPDEGETMYAEKFQGRLTVTEDTSTDTVYMELSSLRSEDTAVYFCATSPGYDFFDYWGQGTLVTVSS VL: SYVLTQPPSVSVAPGKTARITCTGTSSDVGGYNYVSWYQQKPGQAPVLVVYEVSNRPSGIPERFSGSNSGNTATLTISRVEAGDEADYYCQVWDSSNDLLIFGGGTKLTVLG | 0.76 nM | 0.00546 s⁻¹ | 7.18e+06 M⁻¹ s⁻¹
5 | anti-mutCALR antibody clone 179 (antibody, human IgG1, lambda, N297A, V domains shown, human IgG1 N297A variant of clone 17) VH: EVQLVQSGAEVKKPGASVKVSCKVSGYTLTELSMQWVRQAPGKGLEWMGGFDPDDAETMYAEKFQGRLTVTEDTSTDTVYMELSSLRSEDTAVYFCATSPGYDFFDYWGQGTLVTVSS VL: SYVLTQPPSVSVAPGQTARITCGGSDIGDEIVHWYQQKPGQAPVLVVYDDSDRPSGIPERFSGSNSGNTATLTISRAQAGDEADYYCQVWDSSSDHLIFGGGTKLTVLG | 0.455 nM | 0.00681 s⁻¹ | 1e+07 M⁻¹ s⁻¹
6 | anti-mutCALR antibody clone 178 (antibody, human IgG1, lambda, N297A, V domains shown, human IgG1 N297A variant of clone 17) VH: EVQLVQSGAEVKKPGASVKVSCKVSGYTLTELSMQWVRQAPGKGLEWMGGFDPDEGETMYAEKFQGRLTVTEDTSTDTVYMELSSLRSEDTAVYFCATSPGYDFFDYWGQGTLVTVSS VL: SYVLTQPPSVSVAPGQTARITCGGSDIGDEIVHWYQQKPGQAPVLVVYDDSDRPSGIPERFSGSNSGNTATLTISRAQAGDEADYYCQVWDSSSDHLIFGGGTKLTVLG | 1.21 nM | 0.00123 s⁻¹ | 1.02e+06 M⁻¹ s⁻¹
7 | anti-mutCALR antibody clone 177 (antibody, human IgG1, lambda, N297A, V domains shown, human IgG1 N297A variant of clone 17) VH: EVQLVQSGAEVKKPGASVKVSCKVSGYTLTELSMQWVRQAPGKGLEWMGGFDPDSGETMYAEKFQGRLTVTEDTSTDTVYMELSSLRSEDTAVYFCATSPGYDFFDYWGQGTLVTVSS VL: SYVLTQPPSVSVAPGQTARITCGGSDIGDEIVHWYQQKPGQAPVLVVYDDSDRPSGIPERFSGSNSGNTATLTISRAQAGDEADYYCQVWDSSSDHLIFGGGTKLTVLG | 1.49 nM | 0.00549 s⁻¹ | 3.7e+06 M⁻¹ s⁻¹
8 | anti-mutCALR antibody clone 176 (antibody, human IgG1, lambda, N297A, V domains shown) VH: EVQLVQSGAEVKKPGASVKVSCKVSGYTLTELSMQWVRQAPGKGLEWMGGFDPDAGETMYAEKFQGRLTVTEDTSTDTVYMELSSLRSEDTAVYFCATSPGYDFFDYWGQGTLVTVSS VL: SYVLTQPPSVSVAPGQTARITCGGSDIGDEIVHWYQQKPGQAPVLVVYDDSDRPSGIPERFSGSNSGNTATLTISRAQAGDEADYYCQVWDSSSDHLIFGGGTKLTVLG | 2.8 nM | 0.00278 s⁻¹ | 994000 M⁻¹ s⁻¹
9 | anti-mutCALR antibody clone 175 (antibody, human IgG1, lambda, N297A, V domains shown, human IgG1 N297A variant of clone 17) VH: EVQLVQSGAEVKKPGASVKVSCKVSGYTLTELSMQWVRQAPGKGLEWMGGFDPDDGETMYAEKFQGRLTVTEDTSTDTVYMELSSLRSEDTAVYFCATSPGYDFFDYWGQGTLVTVSS VL: SYVLTQPPSVSVAPGQTARITCGGSDIGDEIVHWYQQKPGQAPVLVVYDDSDRPSGIPERFSGSNSGNTATLTISRAQAGDEADYYCQVWDSSSDHLIFGGGTKLTVLG | 1.39 nM | 0.00631 s⁻¹ | 4.53e+06 M⁻¹ s⁻¹

Molecular target: T2, human mutCALR on BaF3 cells stably expressing human MPL and human mutCALR (MPL-mutCALR cells) (human)
T2 construct: also called mutant calreticulin
T2 chain: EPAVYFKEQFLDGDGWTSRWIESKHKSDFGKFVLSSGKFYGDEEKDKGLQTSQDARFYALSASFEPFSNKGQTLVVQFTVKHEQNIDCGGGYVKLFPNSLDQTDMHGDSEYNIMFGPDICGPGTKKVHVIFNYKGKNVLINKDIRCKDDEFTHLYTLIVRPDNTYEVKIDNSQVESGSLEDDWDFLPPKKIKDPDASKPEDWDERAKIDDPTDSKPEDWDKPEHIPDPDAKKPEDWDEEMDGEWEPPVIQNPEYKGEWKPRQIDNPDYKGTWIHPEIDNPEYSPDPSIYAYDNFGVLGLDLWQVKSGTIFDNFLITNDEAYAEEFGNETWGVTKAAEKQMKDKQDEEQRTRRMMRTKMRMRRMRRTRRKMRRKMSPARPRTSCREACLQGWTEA
Assay: flow cytometry, BaF3 MPL-mutCALR cells
Description: On the day of the assay, cells were washed and resuspended in assay buffer. Approximately 200,000 cells/well were added to 96-well plates and stained with the indicated concentration of antibodies for 30 minutes on ice. Cells were then washed and stained with goat anti-human secondary conjugated to R-phycoerythrin (R-PE) (Jackson Immuno Research Laboratories) for 30 minutes on ice. The cells were then washed and analyzed by flow cytometry.

Row | Binder | MPL-mutCALR AUC | EC50
10 | anti-mutCALR antibody clone 75 (antibody, human IgG1, lambda, N297A, V domains shown) VH: EVQLVQSGAEVKKPGASVKVSCKVSGYTLTELSMQWVRQAPGKGLEWMGGFDPDDGETMYAEKFQGRLTVTEDTSTDTVYMELRSLTSEDTALYFCATSPGYDFFDYWGQGTLVTVSS VL: SYVLTQPPSVSVAPGKTARITCGGNNIGSKSVHWYQQKPGQAPVLVVYDDSDRPSGIPERFSGSNSGNTATLTISRVEAGDEADYYCQVWDSSNDLLIFGGGTKLTVLG | 84900 | 
11 | anti-mutCALR antibody clone 76 (antibody, human IgG1, lambda, N297A, V domains shown) VH: EVQLVQSGAEVKKPGASVKVSCKVSGYTLTELSMQWVRQAPGKGLEWMGGFDPDAGETMYAEKFQGRLTVTEDTSTDTVYMELRSLTSEDTALYFCATSPGYDFFDYWGQGTLVTVSS VL: SYVLTQPPSVSVAPGKTARITCGGNNIGSKSVHWYQQKPGQAPVLVVYDDSDRPSGIPERFSGSNSGNTATLTISRVEAGDEADYYCQVWDSSNDLLIFGGGTKLTVLG | 55100 | 8.2 ng/mL
12 | anti-mutCALR antibody clone 77 (antibody, human IgG1, lambda, N297A, V domains shown) VH: EVQLVQSGAEVKKPGASVKVSCKVSGYTLTELSMQWVRQAPGKGLEWMGGFDPDSGETMYAEKFQGRLTVTEDTSTDTVYMELRSLTSEDTALYFCATSPGYDFFDYWGQGTLVTVSS VL: SYVLTQPPSVSVAPGKTARITCGGNNIGSKSVHWYQQKPGQAPVLVVYDDSDRPSGIPERFSGSNSGNTATLTISRVEAGDEADYYCQVWDSSNDLLIFGGGTKLTVLG | 54200 | 6.7 ng/mL
13 | anti-mutCALR antibody clone 78 (antibody, human IgG1, lambda, N297A, V domains shown) VH: EVQLVQSGAEVKKPGASVKVSCKVSGYTLTELSMQWVRQAPGKGLEWMGGFDPDEGETMYAEKFQGRLTVTEDTSTDTVYMELRSLTSEDTALYFCATSPGYDFFDYWGQGTLVTVSS VL: SYVLTQPPSVSVAPGKTARITCGGNNIGSKSVHWYQQKPGQAPVLVVYDDSDRPSGIPERFSGSNSGNTATLTISRVEAGDEADYYCQVWDSSNDLLIFGGGTKLTVLG | 64300 | 5.5 ng/mL
14 | anti-mutCALR antibody clone 79 (antibody, human IgG1, lambda, N297A, V domains shown) VH: EVQLVQSGAEVKKPGASVKVSCKVSGYTLTELSMQWVRQAPGKGLEWMGGFDPDDAETMYAEKFQGRLTVTEDTSTDTVYMELRSLTSEDTALYFCATSPGYDFFDYWGQGTLVTVSS VL: SYVLTQPPSVSVAPGKTARITCGGNNIGSKSVHWYQQKPGQAPVLVVYDDSDRPSGIPERFSGSNSGNTATLTISRVEAGDEADYYCQVWDSSNDLLIFGGGTKLTVLG | 71900 | 3.3 ng/mL
15 | anti-mutCALR antibody clone 81 (antibody, human IgG1, lambda, N297A, V domains shown) VH: EVQLVQSGAEVKKPGASVKVSCKVSGYTLTELSMQWVRQAPGKGLEWMGGFDPDAGETMYAEKFQGRLTVTEDTSTDTVYMELSSLRSEDTAVYFCATSPGYDFFDYWGQGTLVTVSS VL: SYVLTQPPSVSVAPGKTARITCGGNNIGSKSVHWYQQKPGQAPVLVVYDDSDRPSGIPERFSGSNSGNTATLTISRVEAGDEADYYCQVWDSSNDLLIFGGGTKLTVLG | 52900 | 8.2 ng/mL
16 | anti-mutCALR antibody clone 82 (antibody, human IgG1, lambda, N297A, V domains shown) VH: EVQLVQSGAEVKKPGASVKVSCKVSGYTLTELSMQWVRQAPGKGLEWMGGFDPDSGETMYAEKFQGRLTVTEDTSTDTVYMELSSLRSEDTAVYFCATSPGYDFFDYWGQGTLVTVSS VL: SYVLTQPPSVSVAPGKTARITCGGNNIGSKSVHWYQQKPGQAPVLVVYDDSDRPSGIPERFSGSNSGNTATLTISRVEAGDEADYYCQVWDSSNDLLIFGGGTKLTVLG | 50200 | 4.8 ng/mL
17 | anti-mutCALR antibody clone 83 (antibody, human IgG1, lambda, N297A, V domains shown) VH: EVQLVQSGAEVKKPGASVKVSCKVSGYTLTELSMQWVRQAPGKGLEWMGGFDPDEGETMYAEKFQGRLTVTEDTSTDTVYMELSSLRSEDTAVYFCATSPGYDFFDYWGQGTLVTVSS VL: SYVLTQPPSVSVAPGKTARITCGGNNIGSKSVHWYQQKPGQAPVLVVYDDSDRPSGIPERFSGSNSGNTATLTISRVEAGDEADYYCQVWDSSNDLLIFGGGTKLTVLG | 62800 | 3.4 ng/mL
18 | anti-mutCALR antibody clone 84 (antibody, human IgG1, lambda, N297A, V domains shown) VH: EVQLVQSGAEVKKPGASVKVSCKVSGYTLTELSMQWVRQAPGKGLEWMGGFDPDDAETMYAEKFQGRLTVTEDTSTDTVYMELSSLRSEDTAVYFCATSPGYDFFDYWGQGTLVTVSS VL: SYVLTQPPSVSVAPGKTARITCGGNNIGSKSVHWYQQKPGQAPVLVVYDDSDRPSGIPERFSGSNSGNTATLTISRVEAGDEADYYCQVWDSSNDLLIFGGGTKLTVLG | 82400 | 2.9 ng/mL
